Here are results for two substances from patent publication US8497072.

For assay [1], the target named is Aβ1-42 monomer (dot blot) (human). As to the kind of experiment: dot blot, 10 pmol antigen on nitrocellulose, 0.2 µg/ml antibody, densitometry.
In a further assay the target is Aβ(1-40) monomer (human). Described as above.
For assay [2], the target named is endogenous Aβ(1-40) in human CSF (human). The assay can be described thus: IP from CSF of MCI patients (n=4) with antibody-Sepharose, Aβ40 sandwich ELISA of eluate. A general note: An ELISA detects its analyte on a solid surface through an enzyme-linked reagent.
The target of assay [3] is endogenous Aβ(1-42) in human CSF (human). The assay can be described thus: IP from CSF of MCI patients (n=4) with antibody-Sepharose, Aβ42 sandwich ELISA of eluate.
For assay [4], the target named is endogenous Aβ(1-40) in human CSF (human). As to the kind of experiment: IP from CSF of AD patients (n=2) with antibody-Sepharose, Aβ40 sandwich ELISA of eluate.
The target in assay [5] is endogenous Aβ(1-42) in human CSF (human). As to the kind of experiment: IP from CSF of AD patients (n=2) with antibody-Sepharose, Aβ42 sandwich ELISA of eluate.
The target in assay [6] is endogenous Aβ(1-40) in human CSF (human). The assay can be described thus: IP from AD patient CSF with antibody on anti-mouse IgG Dynabeads, 8 M urea-PAGE and Western blot (82E1). (In general: In western blotting, separated proteins are transferred to a membrane and probed.)
Assay [7] concerns the target endogenous Aβ(1-42) in human CSF (human). The description is as above.
The target is the same in assay [8]. The assay can be described thus: IP from CSF of AD patients (n=2), ratio of recovered Aβ42 to Aβ40.
Another assay addresses Aβ(1-42) fibrils (human) (UniProt P05067). As to the kind of experiment: co-sedimentation with Aβ(1-42) fibrils, SDS-PAGE, densitometry of heavy chain in pellet and supernatant.
Assay [9] has as its target endogenous Aβ(1-42) in human CSF (human). As to the kind of experiment: IP from AD patient CSF, urea-PAGE Western blot, share of Aβ42 in recovered Aβ40+42.
The target is the same in assay [10]. The assay can be described thus: IP from CSF of MCI patients (n=4), ratio of recovered Aβ42 to Aβ40.

Chain of endogenous Aβ(1-40) in human CSF (human) (peptide, as listed by the source): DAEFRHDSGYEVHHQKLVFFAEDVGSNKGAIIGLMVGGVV
Chain of endogenous Aβ(1-42) in human CSF (human) (peptide, as listed by the source): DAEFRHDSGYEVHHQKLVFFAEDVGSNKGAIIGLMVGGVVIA

Consider “mMAb 4G8 (Signet Inc. Cat# 9220) (antibody)”, for which the Reflective Density (RD) [10 pmol] in [1] came to 3.1 RD; with Aβ(1-40) monomer (human), 0.7 RD.
Consider “mMAb 6E10 (Signet Inc. Cat.# 9320) (antibody)”, for which the Aβ(1-40) recovered after immunoprecipitation was determined as 8280 in assay [2] and 5610 in [4]. For the same substance, the Aβ(1-42) recovered after immunoprecipitation came to 2040 in assay [3] and 1450 in assay [5]. Besides, the Aβ40 urea-PAGE after immunoprecipitation in [6] turned out to be 4390 pg/mL. In assay [7], this substance yielded an Aβ42 urea-PAGE after immunoprecipitation of 202 pg/mL. Besides, the Aβ42/40 in assay [8] is 20.6%; in assay [10] it was 17.4%. Besides, the Fibril bound Ab fraction in the assay with Aβ(1-42) fibrils (human) stood at 98%. Moreover, in assay [9], the Ratio Aβ42/Aβ40+42 × 100% was 4.4%.
